This passage reports stoichiometry N results from PMC9400078.

The target in test [1] is CelTOS double mutant Lys122Asp, Leu164Asp (Plasmodium vivax). The experiment in a line: SEC.
Test [2] has as its target CelTOS N-terminal truncation mutant (Gly51–Asp196) (Plasmodium vivax). The experiment in a line: SEC. On the technique in general: Size exclusion chromatography separates by hydrodynamic size, large species first.

Broadly, the stoichiometry N is a count of units in the complex or per binding partner.

Turning to “CelTOS double mutant Lys122Asp, Leu164Asp (natural protein)”, the stoichiometry N in test [1] turned out to be 2. With “CelTOS N-terminal truncation mutant (Gly51–Asp196) (domain or fragment)”, the stoichiometry N in test [2] was 2.
